Data from patent US20110027321.

Target: blue casein substrate (4-16% BlueCasein zymogram gel, Novex)

B1: recombinant 6 histidine tagged C. trachomatis HtrA polypeptide (serovar L2), purified from E. coli BL21 (DE3) (pET28-CtHtrA/L2) (protein)
chain: SPMLGYSASKKDSKADICLAVSSGDQEVSQEDLLKEVSRGFSRVAAKATPGVVYIENFPKTGNQAIASPGNKRGFQENPFDYFNDEFFNRFFGLPSHREQQRPQQRDAVRGTGFIVSEDGYVVTNHHVVEDAGKIHVTLHDGQKYTAKIVGLDPKTDLAVIKIQAEKLPFLTFGNSDQLQIGDWAIAIGNPFGLQATVTVGVVSAKGRNQLHIVDFEDFIQTDAAINPGNSGGPLLNINGQVIGVNTAIVSGSGGYIGIGFAIPSLMAKRVIDQLISDGQVTRGFLGVTLQPIDSELATCYKLEKVYGALVTDVVKGSPAEKAGLRQEDVIVAYNGKEVESLSALRNAISLMMPGTRVILKIVREGKTIEIPVTVTQIPTEDGVSALQKMGVRVQNITPEICKKLGLAADTRGILVVAVEAGSPAASAGVAPGQLILAVNRQRVASVEELNQVLKNSKGENVLLMVSQGDVVRFIVLKSDHHHHHHE
protease activity in zymogram gel (zone of clearing): Recombinant C. trachomatis HtrA degradation (i.e. proteolysis) of the blue casein substrate is visualized as a zone of clearing at ˜49 kDa
